According to the supplement of paper PMC12667976:
± gives the standard error.

B1: library; numbered along this chain (parent)
chain: MATDAALRRLLRLHRTEIAVAVDSAFPLLHALADHDVVPEDKFQETLHLKEKEGCPQAFHALLSWLLTQDSTAILDFWRVLFKDYNLERYGRLQPILDSFPKDVDLSQPRKGRKPPAVPKALVPPPRLPTKRKASEEARAAAPAALTPRGTASPGSQLKAKPPKKPESSAEQQRLPLGNGIQTMSASVQRAVAMSSGDVPGARGAVEGILIQQVFESGGSKKCIQVGGEFYTPSKFEDSGSGKNKARSSSGPKPLVRAKGAQGAAPGGGEARLGQQGSVPAPLALPSDPQLHQKNEDECAVCRDGGELICCDGCPRAFHLACLSPPLREIPSGTWRCSSCLQATVQEVQPRAEEPRPQEPPVETPLPPGLRSAGEEVRGPPGEPLAGMDTTLVYKHLPAPPSAAPLPGLDSSALHPLLCVGPEGQQNLAPGARCGVCGDGTDVLRCTHCAAAFHWRCHFPAGTSRPGTGLRCRSCSGDVTPAPVEGVLAPSPARLAPGPAKDDTASHEPALHRDDLESLLSEHTFDGILQWAIQSMARPAAPFPS

Variants of: B1
Test: AIRE transcriptional activation functional score (insulin promoter-GFP; nonsense median 0, synonymous median 1) (normalised score); higher = higher AIRE activity (more reporter activation)
Details: with insulin promoter-GFP reporter in HEK293
Method: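 Deep mutational scan of full-length human AIRE (codon-optimized cDNA, DT-POPCode NNN libraries over three regions) integrated at a Bxb1 landing pad in HEK293 cells carrying an insulin core promoter-GFP reporter at a Flp-In site. Cells were sorted for the top 10% GFP about 14 days after transfection. Variant frequency log-ratios (select vs non-select, TileSeq) were rescaled so that the nonsense median is 0 and the synonymous median is 1, then averaged over biological replicates.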

| Variant | AIRE transcriptional activation functional score |
| --- | --- |
| G333C | 1.14 ± 0.053 |
| V226K | 0.148 ± 0.13 |
| D84K | -0.063 ± 1.1 |
| M536V | 0.514 ± 0.24 |
| E423C | 0.459 ± 0.22 |
| L529Q | -0.832 ± 0.12 |
| Y85R | -0.639 ± 0.52 |
| H415I | 0.632 ± 0.12 |
| W455K | 0.572 ± 0.078 |
| A300Q | 0.413 ± 0.32 |
| L323M | 1.8 ± 0.078 |
| D514C | 0.246 ± 0.18 |
| P56G | 0.501 ± 0.21 |
| P483T | 1.46 ± 0.12 |
| A373W | -0.241 ± 0.043 |
| K50A | -0.833 ± 0.5 |
| K235A | 0.515 ± 0.17 |
| E53A | 1.12 ± 0.17 |
| E296Q | 1.06 ± 0.12 |
| E296D | 0.711 ± 0.29 |
| E216I | -1.75 ± 0.29 |
| A202E | 0.791 ± 0.25 |
| G379P | 0.992 ± 0.16 |
| E359D | 0.954 ± 0.056 |

| Variant | AIRE transcriptional activation functional score |
| --- | --- |
| G227Y | 0.111 ± 0.25 |
| G227W | 0.742 ± 0.041 |
| R371W | 1.77 ± 0.072 |
| R371L | 1.5 ± 0.095 |
| L175N | 0.295 ± 0.16 |
| G208R | 0.0966 ± 0.19 |
| G208M | 0.171 ± 0.1 |
| E376N | 1.32 ± 0.077 |
| E376G | 0.776 ± 0.12 |
| A73F | 0.15 ± 0.087 |
| S234F | 1.31 ± 0.12 |
| C419V | 1.22 ± 0.3 |
| V479D | 0.363 ± 0.13 |
| G201M | 1.67 ± 0.086 |
| G201R | 0.837 ± 0.16 |
| K501R | 1.11 ± 0.37 |
| R12G | 0.415 ± 0.41 |
| R12V | 0.442 ± 0.52 |
| G477I | 1.01 ± 0.33 |
| G477K | 1.11 ± 0.11 |
| V420L | 0.722 ± 0.31 |
| H60S | -0.00297 ± 0.25 |
| K259M | 1.2 ± 0.096 |
| Q213K | 1.02 ± 0.019 |

| Variant | AIRE transcriptional activation functional score |
| --- | --- |
| Q213Y | 1.23 ± 0.2 |
| T151H | 1.34 ± 0.22 |
| E167A | 0.894 ± 0.18 |
| A482T | 0.312 ± 0.16 |
| L273T | 0.77 ± 0.41 |
| G251W | 1.36 ± 0.093 |
| N244K | -0.184 ± 0.41 |
| L308I | 0.905 ± 0.34 |
| T480A | 0.564 ± 0.23 |
| K131A | 0.284 ± 0.099 |
| K131P | 0.0359 ± 0.37 |
| P355W | 1.32 ± 0.019 |
| A33C | 0.846 ± 0.16 |
| R9Q | 1.13 ± 0.62 |
| R92D | 0.169 ± 0.97 |
| R92C | 0.489 ± 0.17 |
| H319T | 1.38 ± 0.14 |
| V487Y | 1.13 ± 0.23 |
| S372W | 1.62 ± 0.065 |
| G313Q | 1 ± 0.27 |
| P129K | 1.07 ± 0.73 |
| A343P | 0.957 ± 0.096 |
| P116R | 0.38 ± 0.45 |
| C223H | 0.784 ± 0.27 |

| Variant | AIRE transcriptional activation functional score |
| --- | --- |
| C302P | 0.251 ± 0.1 |
| C302T | 0.263 ± 0.13 |
| V436S | 0.217 ± 0.2 |
| D297G | 0.852 ± 0.18 |
| G228W | -0.356 ± 0.059 |
| D502E | 0.952 ± 0.26 |
| S187E | 0.48 ± 0.074 |
| A413P | 0.731 ± 0.39 |
| G424F | 1.64 ± 0.083 |
| G424A | 1.25 ± 0.19 |
| I224K | 0.822 ± 0.32 |
| A450H | 1.43 ± 0.17 |
| A450C | 0.795 ± 0.2 |
| L320I | 0.729 ± 0.16 |
| A489C | 1.19 ± 0.1 |
| H35T | -0.0166 ± 0.64 |
| P27G | 0.0337 ± 0.67 |
| P27D | -0.285 ± 0.26 |
| C475S | 0.0047 ± 0.16 |
| Q342P | 0.83 ± 0.18 |
| D288G | 1.14 ± 0.28 |
| K159Q | 0.00224 ± 0.94 |
| S332M | -0.16 ± 0.054 |
| L327G | 0.535 ± 0.21 |

| Variant | AIRE transcriptional activation functional score |
| --- | --- |
| P384H | 1.05 ± 0.42 |
| T72Y | 0.224 ± 0.76 |
| A258L | 0.814 ± 0.13 |
| S169R | 0.711 ± 0.96 |
| P286G | 1.05 ± 0.13 |
| P286F | 1.54 ± 0.18 |
| K42D | -1.69 ± 0.68 |
| K42T | -0.0654 ± 0.27 |
| L106S | -1.04 ± 1.1 |
| K165C | 0.37 ± 0.17 |
| K165G | 0.47 ± 1 |
| D34G | 0.43 ± 0.24 |
| R378L | 0.904 ± 0.25 |
| E485S | 0.955 ± 0.21 |
| T3V | 0.465 ± 0.14 |
| H458F | 0.227 ± 0.083 |
| G527F | -0.224 ± 0.17 |
| R316Y | 1.36 ± 0.26 |
| R316E | 1.28 ± 0.18 |
| P326Q | 0.303 ± 0.12 |
| R272F | 1.09 ± 0.24 |
| R272K | 0.494 ± 0.23 |
| A142C | 1.03 ± 0.1 |
| A142V | 1.27 ± 0.21 |

| Variant | AIRE transcriptional activation functional score |
| --- | --- |
| Q173A | 0.957 ± 0.65 |
| Q173I | 1.45 ± 0.48 |
| P280S | 1.1 ± 0.41 |
| P280R | 1.01 ± 0.22 |
| L418G | 1 ± 0.18 |
| R494F | 0.918 ± 0.15 |
| D238Q | 0.948 ± 0.16 |
| R456D | 0.851 ± 0.091 |
| R456T | 1.32 ± 0.049 |
| W65F | 0.122 ± 0.3 |
| D76E | 0.132 ± 0.51 |
| D76H | 0.235 ± 0.16 |
| V188K | 0.779 ± 0.31 |
| V188D | 0.779 ± 0.13 |
| C446R | 0.0344 ± 0.14 |
| A121K | 1.21 ± 0.12 |
| T364N | 0.588 ± 0.082 |
| E347W | 1.24 ± 0.016 |
| G269H | 0.996 ± 0.23 |
| Y231E | 0.639 ± 0.14 |
| L488R | 0.722 ± 0.19 |
| P143S | 0.96 ± 0.3 |
| L75A | 0.288 ± 0.19 |
| V279Y | 1.26 ± 0.048 |

| Variant | AIRE transcriptional activation functional score |
| --- | --- |
| S491G | 0.752 ± 0.26 |
| E207R | 0.167 ± 0.16 |
| P252D | 0.862 ± 0.034 |
| P252A | 1.02 ± 0.24 |
| P254H | 0.946 ± 0.19 |
| P254G | 0.342 ± 0.34 |
| P254N | -0.115 ± 0.07 |
| P254Y | 1.28 ± 0.062 |
| Q108L | 0.0593 ± 0.35 |
| T183L | 0.699 ± 0.17 |
| L397P | 0.66 ± 0.19 |
| A541L | 0.957 ± 0.3 |
| E517K | -0.0484 ± 0.1 |
| G180F | -0.106 ± 0.1 |
| Q212L | -0.00712 ± 0.26 |
| P148A | 0.746 ± 0.41 |
| Q172R | 1.46 ± 0.51 |
| V377M | 0.944 ± 0.28 |
| V377G | 1.16 ± 0.28 |
| V377W | 1.82 ± 0.044 |
| I209T | 0.1 ± 0.39 |
| I209F | 0.905 ± 0.16 |
| T130I | 1.05 ± 0.38 |
